Source: patent publication US20040202665A1, “Compositions and methods for therapeutic treatment” (priority 2002, published 2004)

B1: L32: scFv antibody fragment of SEQ ID NO:3, screened against a leukemia cell (protein, listed as Homo sapiens)
scFv: MKYLLPTAAAGLLLLAAQPAMAEVQLVESGGGVVRPGGSLRLSCAASGFTFDLNPKVKHMWVRQAPGKGLEWVSGINWNGGSTGYADSVKGRFTISRDNAKNSLYLQMNSERAEDTAVYYCARMRAPVIWGQGTLVTVSRGGGGSGGGGSGGGGSSELTQDPAVSVALGQTVRITCQGDSLRSYYASWYQQKPGQAPVLVIYGKNNRPSGIPDRFSGSSSGNTASLTITGAQAEDEADYYCNSRDSSGNHVVFGGGTKLTVLGAAAEQKLISEEDLNGAA
B2: Y1: human scFv antibody fragment of SEQ ID NO: 1, selected from a phage library on fixed human platelets (protein, listed as Homo sapiens)
scFv: MKYLLPTAAAGLLLLAAQPAMAEVQLVESGGGVVRPGGSLRLSCAASGFSFDDYGMSWVRQAPGKGLEWVSGINWNGGSTGYADSVKGRFTISRDNAKNSLYLQMNSLRAEDTAVYYCARMRAPVIWGQGTLVTVSRGGGGSGGGGSGGGGSSELTQDPAVSVALGQTVRITCQGDSLRSYYASWYQQKPGQAPVLVIYGKNNRPSGIPDRFSGSSSGNTASLTITGAQAEDEADYYCNSRDSSGNHVVFGGGTKLTVLGAAAEQKLISEEDLNGAA

Assays:
[1] = test system: MOLT-4 (T leukemia) cells; assay: Survival of MOLT-4 tumor-bearing mice after doxorubicin and Y1; type: in vivo; details: MOLT-4 tumor-bearing SCID mice; for survival of tumor-bearing mice (FIG. 1): 2 mg Dox/kg i.v. 1x/wk and/or 0.1 mg Y1 scFv/mouse i.v. 3x/wk, relative to control
Protocol: The present example examines the interaction between chemotherapy treatment and Y1 in the MOLT-4 tumor-bearing mice.
Initially, SCID mice (Jackson) were pretreated with 100 mg/kg CTX (Cytoxan-cyclophosphamid for injection, Mead Johnson). Five days after CTX injection, MOLT-4 (T leukemia) cells were inoculated intravenously (i.v.) through the tail vein with 2×10^7 cells. Mice were randomly divided into 5 treatment groups (13 per group), and they were treated, beginning 5 days after cell inoculation, as indicated in the table below. Tumor-bearing mice were treated for two weeks with sub-optimal dose of doxorubicin (Dox), in combination with Y1 given either concomitantly or after the Dox course of treatment. The response to the therapies was monitored as survival. As described above, the experimental groups were as follows: […]

platelets [2] = assay: Binding to platelets
platelets [3] = assay: Platelet aggregation; type: cell-based
leukemic cells = assay: Binding to leukemic cells
[4] = test system: primary leukemia cells derived from either AML or multiple myeloma (MM) patients; assay: Affinity of Y1 to primary leukemia cells; type: binding

Molecule | survival of tumor-bearing mice (FIG. 1) [1] | mean survival time (MST) ([1]; sub-optimal dose 2 mg Dox/kg i.v., 2 doses, 1x/wk, beginning day 5 post inoculation, control 39.08±0.8 days) | binding to platelets (platelets [2]) | effect on platelet aggregation (platelets [3]) | affinity of binding to leukemic cells relative to Y1 (leukemic cells) | affinity to primary leukemia cells relative to glycocalicin, fibrinogen-gamma prime, complement compound 4 and PSGL-1 epitopes [4]
COc1cccc2c1C(=O)c1c(O)c3c(c(O)c1C2=O)C[C@@](O)(C(=O)CO)C[C@@H]3O[C@H]1C[C@H](N)[C@H](O)[C@H](C)O1 [Dox, doxorubicin] | negative effect | 33.5 ± 1.68 days |  |  |  | 
B1 |  |  | does not bind platelets | does not affect platelet aggregation | approximately five times greater affinity than Y1 | 
B2 | dramatic effect |  |  |  |  | several magnitudes higher
